Columns and labels:
[1] = target: T1, rat brain farnesyl:protein transferase (rat, UniProt Q04631 2-377; Q02293 1-437); assay: cell-based or functional assay
[2] = target: T1, rat brain farnesyl:protein transferase; assay: cell-based or functional assay; remark: listed apart in the source

Binder | Concentration for 50% Inhibition [1] | fold decrease of affinity against CVIM, from the concentration required for 50% inhibition [2]
CIKS | 100 µM | –
CVAM | – | 30 fold

— patent US8003342
